Changes are numbered by the printed parent chain. Like-named read-outs stand apart in the source and are kept apart here.

The values that follow come from patent US10766960 (dated 2020).

Holding throughout (experiment): SPR
For assay [1], the target named is T1, FcgRIIa H (human, UniProt P12318).
T1 chain: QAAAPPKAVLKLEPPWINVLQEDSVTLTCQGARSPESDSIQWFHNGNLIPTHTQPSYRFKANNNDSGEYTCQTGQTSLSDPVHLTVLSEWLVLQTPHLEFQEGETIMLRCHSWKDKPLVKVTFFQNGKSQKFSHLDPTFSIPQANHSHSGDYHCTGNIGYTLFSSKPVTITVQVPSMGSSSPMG

Assay [2] concerns the target T2, FcgRIIb (human, UniProt P31994).
T2 chain: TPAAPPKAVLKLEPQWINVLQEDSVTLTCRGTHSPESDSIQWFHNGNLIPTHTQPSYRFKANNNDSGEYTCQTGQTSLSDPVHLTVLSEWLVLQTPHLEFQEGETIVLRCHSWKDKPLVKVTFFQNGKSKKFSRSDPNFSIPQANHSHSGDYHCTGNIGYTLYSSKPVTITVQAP

Assay [3] concerns the target T3, FcgRIIa R (human, UniProt P12318).
T3 chain: T1 chain with H134R

The target in assay [4] is T4, FcgRIIIa V (human, UniProt P08637).
The target of assay [5] is T5, FcgRIIIa F (human, UniProt P08637).
Assay [6] deals with T6, FcgRIa (human, UniProt P12314).
T6 chain: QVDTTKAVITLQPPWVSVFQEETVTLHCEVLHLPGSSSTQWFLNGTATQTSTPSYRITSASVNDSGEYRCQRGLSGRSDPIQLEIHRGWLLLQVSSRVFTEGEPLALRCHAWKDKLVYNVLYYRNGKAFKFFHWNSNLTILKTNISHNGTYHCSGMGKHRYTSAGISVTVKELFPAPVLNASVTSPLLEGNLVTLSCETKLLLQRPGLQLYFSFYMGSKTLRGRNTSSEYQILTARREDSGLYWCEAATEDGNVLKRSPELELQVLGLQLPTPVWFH

Assay [7] concerns the target T5, FcgRIIIa F. This is another data set of the same source.
Assay [8] addresses T1, FcgRIIa H.
The target in assay [9] is T3, FcgRIIa R.
Assay [10] concerns the target T6, FcgRIa.
The target in assay [11] is T2, FcgRIIb.
For assay [12], the target named is T4, FcgRIIIa V. This is another data set of the same source.

T5 sequence (P08637 17-208): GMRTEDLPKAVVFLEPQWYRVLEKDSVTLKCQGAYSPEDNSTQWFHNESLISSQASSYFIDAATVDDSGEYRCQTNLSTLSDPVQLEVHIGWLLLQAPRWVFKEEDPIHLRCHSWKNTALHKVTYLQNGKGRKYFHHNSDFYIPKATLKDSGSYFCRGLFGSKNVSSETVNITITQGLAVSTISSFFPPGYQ
T4 sequence (P08637 17-208 F176V): as the sequence (P08637 17-208) above, with F160V counted along it

B1: H240-Kn210/H240-Hl076/L73-k0 (antibody)
chain 1: QDQLVQSGAEVKKPGASVKVSCKASGFNIKDTYIQWVRQAPGQGLEWMGRIDPLRKQTKYREKFEGRVTITADTSTNTAYMELSSLRSEDTAVYYCVRSGREFDYWGQGTLVTVSSASTKGPSVFPLAPSSKSTSGGTAALGCLVKDYFPEPVTVSWNSGALTSGVHTFPAVLQSSGLYSLSSVVTVPSSSLGTQTYICNVNHKPSNTKVDKKVEPKSCDKTHTCPPCPAPEIQWGPMVFLFPPKPKDTLMISRTPEVTCVVVDVSDEEPEVKFNWYVDGVEVHNAKTKPREEQYNATYRVVSVLTVLHQDWLNGKEYKCKVSNKALPAPIEKTISKAKGQPREPQVCTLPPSRDELTKNQVSLWCLVKGFYPSDIAVEWESNGQPENNYKTTPPVLDSDGSFFLYSKLTVDKSRWQQGNVFSCSVMHEALHNHYTQKSLSLSP
chain 2: QDQLVQSGAEVKKPGASVKVSCKASGFNIKDTYIQWVRQAPGQGLEWMGRIDPLRKQTKYREKFEGRVTITADTSTNTAYMELSSLRSEDTAVYYCVRSGREFDYWGQGTLVTVSSASTKGPSVFPLAPSSKSTSGGTAALGCLVKDYFPEPVTVSWNSGALTSGVHTFPAVLQSSGLYSLSSVVTVPSSSLGTQTYICNVNHKPSNTKVDKKVEPKSCDKTHTCPPCPAPELLGGPSVFLFPPKPKDTLMISRTPEVTCVVVDVSHEEPEVKFNWYVDGVEVHNAKTKPREEQYNSTYRVVSVLTVLHQDWLNGKEYKCKVSNDALPMPIEETISKAKGQPREPQVYTLPPSRCELTKNQVSLSCAVKGFYPSDIAVEWESNGQPENNYKTTPPVLDSDGSFFLVSKLTVDKSRWQQGNVFSCSVMHEALHNHYTQKSLSLSP
chain 3: DIQMTQSPSSLSASVGDRVTITCRASQDIHKYIAWYQQKPGQAPRLLIQYTSTLQPGVPSRFSGSGSGTDYTFTISSLQPEDIATYYCLQYEQLRTFGGGTKVEIKRTVAAPSVFIFPPSDEQLKSGTASVVCLLNNFYPREAKVQWKVDNALQSGNSQESVTEQDSKDSTYSLSSTLTLSKADYEKHKVYACEVTHQGLSSPVTKSFNRGEC
As a reminder, the Kd is the concentration at which binding is half-saturated. Consider B1, for which the Kd with FcgRIIa H [1] was 150 nM; with FcgRIIb [2], 4200 nM; with FcgRIIa R [3], 590 nM; with FcgRIIIa V [4], 0.49 nM; with FcgRIIIa F [5] it was 1.8 nM; with FcgRIa [6], 0.079 nM.

B2: H240-FA020/H240-FB059/L73-k0 (antibody)
chain 1: B1 chain 1 with Q195K, I198T, I233Y, Q234Y, M238S, C348Y, D355K, L357K, W365T, H434R
chain 2: B1 chain 2 with G137E, K146E, K273Q, K287E, C355E, L357M, S365T, A367L, V406Y, K438E
chain 3: B1 chain 3
For B2, the Kd was 3.5 nM with FcgRIIIa F [7]; 77 nM in the assay with FcgRIIa H [8]; 250 nM in the assay with FcgRIIa R [9]; 0.038 nM with FcgRIa [10]; 1300 nM with FcgRIIb [11]; 1.3 nM with FcgRIIIa V [12].

B3: H240-Kn184/H240-Hl068/L73-k0 (antibody)
chain 1: B1 chain 1 with I233E, Q234Y, E269D, A326D
chain 2: B1 chain 2 with M329K
chain 3: B1 chain 3
B3: the Kd with FcgRIIa H [1] came out at 70 nM; with FcgRIIb [2] it was 150 nM; with FcgRIIa R [3], 27 nM; with FcgRIIIa V [4] it was 0.34 nM; in the assay with FcgRIIIa F [5] it was 2.2 nM; in the assay with FcgRIa [6], 0.16 nM.

B4: H240-FA009/H240-FB015/L73-k0 (antibody)
chain 1: B1 chain 1 with Q195K, I233Y, Q234Y, M238S, C348Y, D355K, L357M, W365T, H434R
chain 2: B1 chain 2 with G136E, K273Q, C355E, L357M, S365T, A367L, V406Y, K438E
chain 3: B1 chain 3
As to B4, the Kd in the assay with FcgRIIIa F [7] turned out to be 4.2 nM; with FcgRIIa H [8], 84 nM; with FcgRIIa R [9], 330 nM; in the assay with FcgRIa [10], 0.093 nM; in the assay with FcgRIIb [11], 1800 nM; with FcgRIIIa V [12], 1.3 nM.

B5: H240-FA009/H240-FB020/L73-k0 (antibody)
chain 1: B1 chain 1 with Q195K, I233Y, Q234Y, M238S, C348Y, D355K, L357M, W365T, H434R
chain 2: B1 chain 2 with K146E, K273Q, C355E, L357M, S365T, A367L, V406Y, K438E
chain 3: B1 chain 3
Consider B5, for which the Kd is 3.9 nM with FcgRIIIa F [7]; 64 nM with FcgRIIa H [8]; 250 nM with FcgRIIa R [9]; 0.12 nM with FcgRIa [10]; 1400 nM in the assay with FcgRIIb [11]; 1.1 nM with FcgRIIIa V [12].

B6: H240-Kn200/H240-Hl076/L73-k0 (antibody)
chain 1: B1 chain 1 with I233S
chain 2: B1 chain 2
chain 3: B1 chain 3
Consider B6, for which the Kd with FcgRIIa H [1] worked out at 230 nM; with FcgRIIb [2] it was 6200 nM; in the assay with FcgRIIa R [3] it was 790 nM; with FcgRIIIa V [4], 0.59 nM; with FcgRIIIa F [5], 2.4 nM; in the assay with FcgRIa [6], 0.088 nM.

B7: H240-Kn203/H240-Hl068/L73-k0 (antibody)
chain 1: B1 chain 1 with I233F, Q234Y, E269D, A326D
chain 2: B1 chain 2 with M329K
chain 3: B1 chain 3
B7: the Kd with FcgRIIa H [1] is 49 nM; in the assay with FcgRIIb [2], 270 nM; in the assay with FcgRIIa R [3], 46 nM; with FcgRIIIa V [4], 0.76 nM; with FcgRIIIa F [5], 3.4 nM; in the assay with FcgRIa [6], 0.43 nM.

B8: H240-Kn214/H240-Hl076/L73-k0 (antibody)
chain 1: B1 chain 1 with I233G
chain 2: B1 chain 2
chain 3: B1 chain 3
In the case of B8, the Kd with FcgRIIa H [1] was determined as 330 nM; with FcgRIIb [2], 7100 nM; in the assay with FcgRIIa R [3], 1100 nM; in the assay with FcgRIIIa V [4] it was 0.8 nM; with FcgRIIIa F [5] it was 3.4 nM; with FcgRIa [6], 0.061 nM.

B9: H240-Kn202/H240-Hl076/L73-k0 (antibody)
chain 1: B1 chain 1 with I233E
chain 2: B1 chain 2
chain 3: B1 chain 3
B9: the Kd in the assay with FcgRIIa H [1] was 360 nM; in the assay with FcgRIIb [2], 4100 nM; with FcgRIIa R [3], 640 nM; with FcgRIIIa V [4], 0.38 nM; in the assay with FcgRIIIa F [5], 1.6 nM; with FcgRIa [6] it was 0.071 nM.

B10: H240-Kn199/H240-Hl068/L73-k0 (antibody)
chain 1: B1 chain 1 with I233L, Q234Y, E269D, A326D
chain 2: B1 chain 2 with M329K
chain 3: B1 chain 3
Take B10: the Kd with FcgRIIa H [1] amounted to 27 nM; with FcgRIIb [2], 130 nM; with FcgRIIa R [3], 20 nM; in the assay with FcgRIIIa V [4] it was 0.41 nM; with FcgRIIIa F [5], 2.3 nM; with FcgRIa [6], 0.31 nM.

B11: H240-FA020/H240-FB084/L73-k0 (antibody)
chain 1: B1 chain 1 with Q195K, I198T, I233Y, Q234Y, M238S, C348Y, D355K, L357K, W365T, H434R
chain 2: QDQLVQSGAEVKKPGASVKVSCKASGFNIKDTYIQWVRQAPGQGLEWMGRIDPLRKQTKYREKFEGRVTITADTSTNTAYMELSSLRSEDTAVYYCVRSGREFDYWGQGTLVTVSSASTKGPSVFPLAPSSKSTSESTAALGCLVEDYFPEPVTVSWNSGALTSGVHTFPAVLQSSGLYSLSSVVTVPSSNFGTQTYTCNVDHKPSNTKVDKTVEPKSCDKTHTCPPCPAPELLGGPSVFLFPPKPKDTLMISRTPEVTCVVVDVSHEEPEVQFNWYVDGVEVHNAETKPREEQYNSTYRVVSVLTVLHQDWLNGKEYKCKVSNDALPMPIEETISKAKGQPREPQVYTLPPSREEMTKNQVSLTCLVKGFYPSDIAVEWESEGQPENNYKTTPPVLDSDGSFFLYSKLTVDKSRWQQGNVFSCSVMHEALHNHYTQESLSLSP
chain 3: B1 chain 3
As for B11, the Kd in the assay with FcgRIIIa F [7] turned out to be 3.5 nM; in the assay with FcgRIIa H [8] it was 57 nM; in the assay with FcgRIIa R [9], 220 nM; with FcgRIa [10], 0.068 nM; in the assay with FcgRIIb [11], 1400 nM; with FcgRIIIa V [12] it was 1 nM.

B12: H240-Kn212/H240-Hl076/L73-k0 (antibody)
chain 1: B1 chain 1 with I233T
chain 2: B1 chain 2
chain 3: B1 chain 3
For B12, the Kd came out at 230 nM with FcgRIIa H [1]; 5200 nM with FcgRIIb [2]; 640 nM with FcgRIIa R [3]; 0.58 nM with FcgRIIIa V [4]; 2.1 nM with FcgRIIIa F [5]; 0.094 nM in the assay with FcgRIa [6].

B13: H240-Kn209/H240-Hl076/L73-k0 (antibody)
chain 1: B1 chain 1 with I233Q
chain 2: B1 chain 2
chain 3: B1 chain 3
As to B13, the Kd in the assay with FcgRIIa H [1] came out at 250 nM; with FcgRIIb [2], 7500 nM; in the assay with FcgRIIa R [3], 1200 nM; with FcgRIIIa V [4], 0.62 nM; in the assay with FcgRIIIa F [5] it was 2.4 nM; in the assay with FcgRIa [6] it was 0.083 nM.

B14: H240-FA030/H240-FB064/L73-k0 (antibody)
chain 1: QDQLVQSGAEVKKPGASVKVSCKASGFNIKDTYIQWVRQAPGQGLEWMGRIDPLRKQTKYREKFEGRVTITADTSTNTAYMELSSLRSEDTAVYYCVRSGREFDYWGQGTLVTVSSASTKGPSVFPLAPSSKSTSGGTAALGCLVKDYFPEPVTVSWNSGALTSGVHTFPAVLQSSGLYSLSSVVTVPSSSLGTKTYTCNVNHKPSNTKVDKKVEPKSCDKTHTCPPCPAPEYYWGPSVFLFPPKPKDTLMISRTPEVTCVVVDVSDEEPKVKFNWYVDGVEVHNAKTKPREEQYNATYRVVSVLTVLHQDWLNGKEYKCKVSNKALPAPIEKTISKAKGQPREPQVYTLPPSRKEMTKNQVSLTCLVKGFYPSDIAVEWESNGQPENNYKTTPPVLDSDGSFFLYSKLTVDKSRWQQGNVFSCSVMHEALHNRYTQKSLSLSP
chain 2: B11 chain 2 with E146K, E287K, E383N
chain 3: B1 chain 3
In the case of B14, the Kd with FcgRIIIa F [7] stood at 5.3 nM; with FcgRIIa H [8], 96 nM; with FcgRIIa R [9] it was 290 nM; in the assay with FcgRIa [10], 0.057 nM; with FcgRIIb [11], 1800 nM; in the assay with FcgRIIIa V [12], 1.5 nM.
